We go through one molecule from publication doi:10.1101/464495.

The target in one data set is T1, MBP-IE86 full length (human cytomegalovirus, UniProt P19893 1-580).
T1 sequence: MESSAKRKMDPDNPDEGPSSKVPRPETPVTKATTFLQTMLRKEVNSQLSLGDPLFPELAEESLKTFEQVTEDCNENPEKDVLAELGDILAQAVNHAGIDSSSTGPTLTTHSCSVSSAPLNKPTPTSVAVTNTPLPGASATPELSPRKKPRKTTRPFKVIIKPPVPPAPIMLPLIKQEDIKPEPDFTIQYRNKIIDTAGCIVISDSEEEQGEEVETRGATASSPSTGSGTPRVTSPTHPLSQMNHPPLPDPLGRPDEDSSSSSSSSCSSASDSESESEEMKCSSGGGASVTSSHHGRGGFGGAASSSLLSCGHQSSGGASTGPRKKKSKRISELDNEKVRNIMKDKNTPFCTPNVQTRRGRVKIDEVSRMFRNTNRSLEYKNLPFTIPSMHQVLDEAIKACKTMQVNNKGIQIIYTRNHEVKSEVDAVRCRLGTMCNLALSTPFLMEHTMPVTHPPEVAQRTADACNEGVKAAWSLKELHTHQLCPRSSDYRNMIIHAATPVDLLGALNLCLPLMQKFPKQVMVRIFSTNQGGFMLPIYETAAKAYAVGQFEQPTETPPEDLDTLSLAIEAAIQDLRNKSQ
The experiment in a line: size-exclusion chromatography. In general terms: SEC sorts molecules by how far they enter the pores of the column.

Data set [1] deals with Maltose binding protein (MBP) (UniProt P0AEX9 27-396). The experiment in a line: size-exclusion chromatography.

B1: FDC (28bp, phosphorothioate) (dsDNA)
DNA 1: GACAGATCGTTTAGTGAACCGTACACGA
DNA 2: TCGTGTACGGTTCACTAAACGATCTGTC
modifications: four phosphorothioate bonds per strand (* in table)
As to B1, the binding result is given as “binds” with MBP-IE86 full length and “no binding” in data set [1].
